# Measured values from patent US20240010722A1 (published 2024).
# T1: human MAdCAM (human, UniProt Q13477 19-317, limits assumed)
# T1 construct: also called huMAdCAM; human MAdCAM-1
# T1 sequence (looked up): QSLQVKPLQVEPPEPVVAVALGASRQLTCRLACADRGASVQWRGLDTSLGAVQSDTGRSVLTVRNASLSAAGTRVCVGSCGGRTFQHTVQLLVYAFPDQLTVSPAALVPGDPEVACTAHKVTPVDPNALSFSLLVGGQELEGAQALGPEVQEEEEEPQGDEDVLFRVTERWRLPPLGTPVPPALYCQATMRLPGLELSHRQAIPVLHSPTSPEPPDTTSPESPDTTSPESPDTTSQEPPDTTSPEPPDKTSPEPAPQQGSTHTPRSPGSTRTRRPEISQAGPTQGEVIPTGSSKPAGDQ
# Target: T1, human MAdCAM
# Test: BLI (Octet), binder on AHC tips
# Method in brief: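 After 20 minutes of equilibration in assay buffer, anti-human IgG Fc biosensors on an Octet96 RED were loaded for 240 s with test article at 10 μg/mL in assay buffer. Association with MAdCAM-1, a seven-point serial dilution from 200 nM to 3.13 nM, ran for 120 s, and dissociation in assay buffer ran for another 120 s. A global one-to-one fit in the Octet data analysis software gave the kinetic rates and dissociation constant.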
Kd [nM],koff [s⁻¹],kon [M⁻¹ s⁻¹],Binder
175,0.127,725000,"PMAB2 (bispecific antibody, human IgG1, kappa) heavy: EVQLLESGGGLVQPGGSLRLSCAASGFTFSNSDMSWVRQAPGKGLEWVSGITISGGSTYYADSVKGRFTISRDNSKNTLYLQMNSLRAEDTAVYYCARGRGGSGWLDYWGQGTLVTVSSASTKGPSVFPLAPSSKSTSGGTAALGCLVKDYFPEPVTVSWNSGALTSGVHTFPAVLQSSGLYSLSSVVTVPSSSLGTQTYICNVNHKPSNTKVDKKVEPKSCDKTHTCPPCPAPEAAGAPSVFLFPPKPKDTLMISRTPEVTCVVVDVSHEDPEVKFNWYVDGVEVHNAKTKPREEQYNSTYRVVSVLTVLHQDWLNGKEYKCKVSNKALPAPIEKTISKAKGQPREPQVYTLPPSREEMTKNQVSLTCLVKGFYPSDIAVEWESNGQPENNYKTTPPVLDSDGSFFLYSKLTVDKSRWQQGNVFSCSVMHEALHNHYTQKSLSLSPGGGGGSGGGGSGGGGSEVQLLESGGGLVQPGGSLRLSCAASGFTFSSYWMHWVRQAPGKGLEWVSAISGSSGSTYYADSVKGRFTISRDNSKNTLYLQMNSLRAEDTAVYYCARDRPYGYYMDVWGKGTTVTVSSGGGGSGGGGSGGGGSGGGGSDIQMTQSPSSLSASVGDRVTITCRASQSISSSLAWYQQKPGKAPKLLIYAASSLQSGVPSRFSGSGSGTDFTLTISSLQPEDFATYYCQQYKSYPVTFGQGTKVEIK light: not shown"
236,0.136,576000,"PMAB7 (bispecific antibody, human IgG1, kappa) heavy: EVQLLESGGGLVQPGGSLRLSCAASGFTFSNSDMSWVRQAPGKGLEWVSGITISGGSTYYADSVKGRFTISRDNSKNTLYLQMNSLRAEDTAVYYCARGRGGSGWLDYWGQGTLVTVSSASTKGPSVFPLAPSSKSTSGGTAALGCLVKDYFPEPVTVSWNSGALTSGVHTFPAVLQSSGLYSLSSVVTVPSSSLGTQTYICNVNHKPSNTKVDKKVEPKSCDKTHTCPPCPAPEAAGAPSVFLFPPKPKDTLMISRTPEVTCVVVDVSHEDPEVKFNWYVDGVEVHNAKTKPREEQYNSTYRVVSVLTVLHQDWLNGKEYKCKVSNKALPAPIEKTISKAKGQPREPQVYTLPPSREEMTKNQVSLTCLVKGFYPSDIAVEWESNGQPENNYKTTPPVLDSDGSFFLYSKLTVDKSRWQQGNVFSCSVMHEALHNHYTQKSLSLSPGGGGGSGGGGSGGGGSEVQLLESGGGLVQPGGSLRLSCAASGFTFSSYWMHWVRQAPGKGLEWISAISGSGGSTYYADSVKGRFTISRDNSKNTLYLQMNSLRAEDTAVYYCARDRPYYYYMDVWGKGTTVTVSSGGGGSGGGGSGGGGSGGGGSDIQMTQSPSSLSASVGDRVTITCRASQSISSSLAWYQQKPGKAPKLLIYAASSLQSGVPSRFSGSGSGTDFTLTISSLQPEDFATYYCQQYKSYPVTFGQGTKVEIK light: not shown"
333,0.239,717000,"PMAB3 (bispecific antibody, human IgG1, kappa) heavy: EVQLLESGGGLVQPGGSLRLSCAASGFTFSNSDMSWVRQAPGKGLEWVSGITISGGSTYYADSVKGRFTISRDNSKNTLYLQMNSLRAEDTAVYYCARGRGGSGWLDYWGQGTLVTVSSASTKGPSVFPLAPSSKSTSGGTAALGCLVKDYFPEPVTVSWNSGALTSGVHTFPAVLQSSGLYSLSSVVTVPSSSLGTQTYICNVNHKPSNTKVDKKVEPKSCDKTHTCPPCPAPEAAGAPSVFLFPPKPKDTLMISRTPEVTCVVVDVSHEDPEVKFNWYVDGVEVHNAKTKPREEQYNSTYRVVSVLTVLHQDWLNGKEYKCKVSNKALPAPIEKTISKAKGQPREPQVYTLPPSREEMTKNQVSLTCLVKGFYPSDIAVEWESNGQPENNYKTTPPVLDSDGSFFLYSKLTVDKSRWQQGNVFSCSVMHEALHNHYTQKSLSLSPGGGGGSGGGGSGGGGSEVQLLESGGGLVQPGGSLRLSCAASGFTFSSYWMHWVRQAPGKGLEWVSAISGSSGSTYYADSVKGRFTISRDNSKNTLYLQMNSLRAEDTAVYYCARDRPYYYYMDVWGKGTTVTVSSGGGGSGGGGSGGGGSGGGGSDIQMTQSPSSLSASVGDRVTITCRASQSISSSLAWYQQKPGKAPKLLIYAASSLQSGVPSRFSGSGSGTDFTLTISSLQPEDFATYYCQQYKSYPVTFGQGTKVEIK light: not shown"
150,0.105,698000,"PMAB6 (bispecific antibody, human IgG1, kappa) heavy: EVQLLESGGGLVQPGGSLRLSCAASGFTFSNSDMSWVRQAPGKGLEWVSGITISGGSTYYADSVKGRFTISRDNSKNTLYLQMNSLRAEDTAVYYCARGRGGSGWLDYWGQGTLVTVSSASTKGPSVFPLAPSSKSTSGGTAALGCLVKDYFPEPVTVSWNSGALTSGVHTFPAVLQSSGLYSLSSVVTVPSSSLGTQTYICNVNHKPSNTKVDKKVEPKSCDKTHTCPPCPAPEAAGAPSVFLFPPKPKDTLMISRTPEVTCVVVDVSHEDPEVKFNWYVDGVEVHNAKTKPREEQYNSTYRVVSVLTVLHQDWLNGKEYKCKVSNKALPAPIEKTISKAKGQPREPQVYTLPPSREEMTKNQVSLTCLVKGFYPSDIAVEWESNGQPENNYKTTPPVLDSDGSFFLYSKLTVDKSRWQQGNVFSCSVMHEALHNHYTQKSLSLSPGGGGGSGGGGSGGGGSEVQLLESGGGLVQPGGSLRLSCAASGFTFSSYWMHWVRQAPGKGLEWISAISGSGGSTYYADSVKGRFTISRDNSKNTLYLQMNSLRAEDTAVYYCARDRPYGYYMDVWGKGTTVTVSSGGGGSGGGGSGGGGSGGGGSDIQMTQSPSSLSASVGDRVTITCRASQSISSSLAWYQQKPGKAPKLLIYAASSLQSGVPSRFSGSGSGTDFTLTISSLQPEDFATYYCQQYKSYPVTFGQGTKVEIK light: not shown"
71.4,0.0469,656000,"PMAB8 (bispecific antibody, human IgG1, kappa) heavy: EVQLLESGGGLVQPGGSLRLSCAASGFTFSNSDMSWVRQAPGKGLEWVSGITISGGSTYYADSVKGRFTISRDNSKNTLYLQMNSLRAEDTAVYYCARGRGGSGWLDYWGQGTLVTVSSASTKGPSVFPLAPSSKSTSGGTAALGCLVKDYFPEPVTVSWNSGALTSGVHTFPAVLQSSGLYSLSSVVTVPSSSLGTQTYICNVNHKPSNTKVDKKVEPKSCDKTHTCPPCPAPEAAGAPSVFLFPPKPKDTLMISRTPEVTCVVVDVSHEDPEVKFNWYVDGVEVHNAKTKPREEQYNSTYRVVSVLTVLHQDWLNGKEYKCKVSNKALPAPIEKTISKAKGQPREPQVYTLPPSREEMTKNQVSLTCLVKGFYPSDIAVEWESNGQPENNYKTTPPVLDSDGSFFLYSKLTVDKSRWQQGNVFSCSVMHEALHNHYTQKSLSLSPGGGGGSGGGGSGGGGSEVQLLESGGGLVQPGGSLRLSCAASGFTFSSYWMHWVRQAPGKGLEWISAISGSGGSTYYADSVKGRFTISRDNSKNTLYLQMNSLRAEDTAVYYCARDRPYGYYMDVWGKGTTVTVSSGGGGSGGGGSGGGGSGGGGSDIQMTQSPSSLSASVGDRVTITCRASQSISRSLAWYQQKPGKAPKLLIYAASSLQSGVPSRFSGSGSGTDFTLTISSLQPEDFATYYCQQYKSYPVTFGQGTKVEIK light: not shown"
413,0.12,290000,"PMAB5 (bispecific antibody, human IgG1, kappa) heavy: EVQLLESGGGLVQPGGSLRLSCAASGFTFSNSDMSWVRQAPGKGLEWVSGITISGGSTYYADSVKGRFTISRDNSKNTLYLQMNSLRAEDTAVYYCARGRGGSGWLDYWGQGTLVTVSSASTKGPSVFPLAPSSKSTSGGTAALGCLVKDYFPEPVTVSWNSGALTSGVHTFPAVLQSSGLYSLSSVVTVPSSSLGTQTYICNVNHKPSNTKVDKKVEPKSCDKTHTCPPCPAPEAAGAPSVFLFPPKPKDTLMISRTPEVTCVVVDVSHEDPEVKFNWYVDGVEVHNAKTKPREEQYNSTYRVVSVLTVLHQDWLNGKEYKCKVSNKALPAPIEKTISKAKGQPREPQVYTLPPSREEMTKNQVSLTCLVKGFYPSDIAVEWESNGQPENNYKTTPPVLDSDGSFFLYSKLTVDKSRWQQGNVFSCSVMHEALHNHYTQKSLSLSPGGGGGSGGGGSGGGGSEVQLLESGGGLVQPGGSLRLSCAASGFTFSSYWMHWVRQAPGKGLEWVSAISGSSGSTYYADSVKGRFTISRDNSKNTLYLQMNSLRAEDTAVYYCARDRPYYYYMDVWGKGTTVTVSSGGGGSGGGGSGGGGSGGGGSDIQMTQSPSSLSASVGDRVTITCRASQSISRSLAWYQQKPGKAPKLLIYAASSLQSGVPSRFSGSGSGTDFTLTISSLQPEDFATYYCQQYKSYPVTFGQGTKVEIK light: not shown"
41.8,0.0547,1.31e+06,"PMAB4 (bispecific antibody, human IgG1, kappa) heavy: EVQLLESGGGLVQPGGSLRLSCAASGFTFSNSDMSWVRQAPGKGLEWVSGITISGGSTYYADSVKGRFTISRDNSKNTLYLQMNSLRAEDTAVYYCARGRGGSGWLDYWGQGTLVTVSSASTKGPSVFPLAPSSKSTSGGTAALGCLVKDYFPEPVTVSWNSGALTSGVHTFPAVLQSSGLYSLSSVVTVPSSSLGTQTYICNVNHKPSNTKVDKKVEPKSCDKTHTCPPCPAPEAAGAPSVFLFPPKPKDTLMISRTPEVTCVVVDVSHEDPEVKFNWYVDGVEVHNAKTKPREEQYNSTYRVVSVLTVLHQDWLNGKEYKCKVSNKALPAPIEKTISKAKGQPREPQVYTLPPSREEMTKNQVSLTCLVKGFYPSDIAVEWESNGQPENNYKTTPPVLDSDGSFFLYSKLTVDKSRWQQGNVFSCSVMHEALHNHYTQKSLSLSPGGGGGSGGGGSGGGGSEVQLLESGGGLVQPGGSLRLSCAASGFTFSSYWMHWVRQAPGKGLEWVSAISGSSGSTYYADSVKGRFTISRDNSKNTLYLQMNSLRAEDTAVYYCARDRPYGYYMDVWGKGTTVTVSSGGGGSGGGGSGGGGSGGGGSDIQMTQSPSSLSASVGDRVTITCRASQSISRSLAWYQQKPGKAPKLLIYAASSLQSGVPSRFSGSGSGTDFTLTISSLQPEDFATYYCQQYKSYPVTFGQGTKVEIK light: not shown"
